The results in this text go back to the DeepSol protein solubility set.

This series in a line: soluble on expression in E. coli; label from the status in PepcDB or PDB records.
As for “MSLSSIRKKDVERFILSDDYKPMVLKELYKKFRAKTREQRKKVREVVKKLEKEGRIFRDSRGRYRKLGEDLKVGTIEFTRSGYVAFVITDDFEEIAVPVEDTKYAMHKDRVVVEITGTWRGLPRGRVVRVLERGLKRVVGVFDHKGTFGFVVPDDPKIAYDFYVAPENIDGAKPNQKVIAEILKYPSPGKNPEAKVVKVLGDLDDPSIDLPSVIVKHDLPEPGEFPEEVIREANAIPARVRKKDLVGRKDLRDKVIVTIDGEDAKDFDDAISVEKLPNGNYLLGVHIADVSHYVKEGSALDQEAFKRGTSVYLIDTVIPMLPFRLSNGICSLVEGKDRLTMSVEMEIDRDGRVVRYDVYPSVIKSKKRMIYERVNEFLEDPSSMKEYEPFKDLIYNAVELAEILREARRKRGAILDIESDEVKVILDENGQVVDIVPRKRGIAEKLIEEFMIRANETVAEIFDHAGLPFMYRVHEEPDPETIFQLKNYLEAMGIRAKFSHKIHPGMLQKLLEKVKDHPLRSSVERLLVRSMKRAMYSAVNIGHFGLASYAYTHFTSPIRRYPDLVVHRLLKLYLEQNGYFTPEQIEKFSKVLPKIAKHCSRRERVADEAEWDLVAMKKVEYIARHIGEVFNVVVTNITKFGLFVEIPEKSISGLVHISTLDDYYYYDETRNMLIGKRKGKVFRLGDVLKAKVVRADKIRGEIDFVLVEEDEEEGHHHHHH”, the “soluble on expression in E. coli” value is reported as “not soluble”.
As for “MNLHTKTWVQRLPVPIDVAWDFFSQPGNLARITPPEMMLKAEGGNAGTAIYEGMKLNFVLYPFMMIPVRWTTEIMKVSKPDFFEDRQLSGPYEQWYHRHLFRDIEGGTEMTDIVEYALPFDLFGEVVEALIVGPRLDEVFEYRRCRVAEILGEMASETRLEHHHHHH”, the entry is “soluble”.
“MAHHHHHHMHAEAAAEAAMPVIATLSSRVVRIMGLNPGYMTLQGSNTYLVGTGQERLLIDSGEGVEGYGHLLQKAVAEESTRLGGPVHISKLLLTHWHGDHIGGVETVRRLFPQVQLLKQPSQYAHTEVDALCQVPPEVVKVEGATLQLVHTPGHTDDHLCAFLQEERALFTSDTVLGTGTSVFSSFRDYMASLHVLERMKPERLYPAHGPVVEDGTARIEEIIRHRHTREKQILQVLCERTHGVSALDSEKGLTVRELVDTIYTTIPAALKTAAGTNVFHHVKKLLNEGRVVVRYAPADLVHFLKDATDYTVFGEGADADVKVIERILTEFRVAAAGVSSGAP”: the “soluble on expression in E. coli” value is given as “soluble”.
For “WVFFVEDGETIRVRLRSKGPVINTVAMEHNGGGHPMAAGAKAKSWEETDKIV”, the “soluble on expression in E. coli” value is listed as “soluble”.
As for “MGSDKIHHHHHHMALRIAFLTVGDPQRRTGGYLYHREVFRCWQARNQPVEEIVLGPADVAGQIAASNRAGQLVEAGRYDVIVVDALARAVVAPWLAHWQRLCPLVTLVHELPTVAGASDPREYEWEQMLLRADALVAVSDDGANTLIARGVEAARIHIASGGCDRLLSRMPVGKAREELVIAVAQWIPRKNLAHLVRVWGQVAEHPWRLELIGESDADPVYAGEVWQAIQHCPANVIVRGVLADDELAERYARASLFALPSRFEGYGLVFAEALACGLPVIAGAVGPVPALVGAGGMLVHPDDEQALSVALRTVMRDAHLRQHLSTAARQRASTLPRWQDTAQHLLCAIEWAYAQRHRVST”, the “soluble on expression in E. coli” value is “not soluble”.
As for “MSLGREKGLSTFLFLLLFSISLHAQRQDILLNNNWNFRFSHQVQGDTRRVDLPHTWNAQDALAGKIDYKRGIGNYEKALYIRPEWKGKRLFLRFDGVNSIADVFINRKHIGEHRGGYGAFIFEITDLVKYGEKNSVLVRANNGEQLDIMPLVGDFNFYGGIYRDVHLLITDETCISPLDYASPGVYLVQEVVSPQEAKVCAKVNLSNRAADGTAELQVLVTDGTKVICKESRNVSLKQGADILEQLPLLIQKPRLWNGCEDPFMYQVSISLHKDGKQIDSVTQPLGLRYYHTDPDKGFFLNGKHLPLHGVCRHQDRAEVGNALRPQHHEEDVALMREMGVNAIRLAHYPQATYMYDLMDKHGIVTWAEIPFVGPGGYADKGFVDQASFRENGKQQLIELIRQHYNHPSICFWGLFNELKEVGDNPVEYVKELNALAKQEDPTRPTTSASNQDGNLNFITENIAWNRYDGWYGSTPKTLATFLDRTHKKHPELRIGISEYGAGASIYHQQDSLKQPSASGWWHPENWQTYYHMENWKIIAERPFVWGTFVWNMFDFGAAHRTEGDRPGINDKGLVTFDRKVRKDAFYFYKANWNKQEPMIYLAEKRCRLRYQPEQTFMAFTTAPEAELFVNGVSCGKQKADTYSTVVWKNVKLTSGENIIRVTTPGKKPLTDEVTVEYKEDREGHHHHHH”, the “soluble on expression in E. coli” value is reported as “not soluble”.
As to “GMNSPKNSLYEEKSGHYYNAVNPNLLKHIKKEWKEVLDIGCSSGALGAAIKENGTRVSGIEAFPEAAEQAKEKLDHVVLGDIETMDMPYEEEQFDCVIFGDVLEHLFDPWAVIEKVKPYIKQNGVILASIPNVSHISVLAPLLAGNWTYTEYGLLDKTHIRFFTFNEMLRMFLKAGYSISKVDRVYVDHKMYEPLIEELYGICKKYRLGSGFMAETVVFQYIIEAEKSQL”, the “soluble on expression in E. coli” value is recorded as “soluble”.
Regarding “MSEFNEKPEKLIVDGLRLDGRKFDELRPIKIEASVLKRADGSCYLEMGKNKVIAAVFGPREVHPRHLQDPSKAIIRYRYNMAPFSVEERKRPGPDRRSIEISKVSKEAFEAVIMKELFPRSAIDIFVEVLQADAGSRTACLNAASVALVDAGVPMKGMITSVAVGKADGQLVLDPMKEEDNFGEADMPFAFLIRNGKIESIALLQMDGRMTRDEVKQAIELAKKGALQIYEMQREAILRRYIEVGEEMDEITEGGEDA”, the “soluble on expression in E. coli” value is “soluble”.
On to “SKNEKEQLSKAKASVSSLNKVIQTKLTVGNLGLGLVVIQNGPYLQISHLINKGAAASDGILQPGDVLISVGHANVLGYTLREFLKLLQNITIGTVLQIKAYRGFLEIPQEWQD”, for which the “soluble on expression in E. coli” value was “soluble”.
Take “KISKISTGIPRVDELLYGGFDGRDNIVVSGNNFSQKRSFIYNFIKSSANSGMKVIIINVDGSSESLLADLARRGTDLENIILLDGFSKNFQEKVPPNAEVIDDPSNVSSVLKQYMLRAQKEKDFIFVFLSATPYLMDFNDQNRKFFVQLVHWNRKNSLLSTYVLDDFVGQTTAEWFAYMMDFSLYFKNDGDYDYMRVLSLKPVRTKDW”: the “soluble on expression in E. coli” value is given as “soluble”.
To “MIFGRTERGKPPVEPVTLKILVAGGFGVGKTTLVGAVSEIRPLRTEEVLTEAGRPVDDISGVEGKHTTTVAMDFGRITLREDLVLYLFGTPGQDRFWFLWDELATGALGAVVLADTRRLEDCFAAVDYFERRSIPFVMGVNCFEEAARYPVEDVRRALDLDDDVPVVLCDARDRESVKEVLIDVVRHAMAHAAERRETVSGLEHHHHHH” belongs “not soluble”.
As for “MGSDKIHHHHHHMRRRHVGVGAELTAFRILAAISCERLFWETGSRNQAVKTRAESANREISMIRTAMIAATALAASLAASAPAFAADVVGLWATPGNGGQVEISRCGNSLCGKLVTSDHIKTNPGLKDIKNKDESQRSRTLKNLQMLYDFSGGPTKWTGGKVYNPEDGGVYAGTIELVSTTELKLKGCVVAPLCKTQKWTRIR”, the entry is “not soluble”.
In the case of “MGSDKIHHHHHHMTSDVLVIAPFRRPTFRTAISHLYPVTEPWDSPPLITCGAIQEAGLEVDYVALQNIFNGYDPERDGRDLNEILGVLHPKVVIFSSDHFIPSRSTASIYGISLVSKIFKSRERPPLIGVCGRLATVAAQRLFAEVPEVDFAVIGESDGVIGEVVADLLAADMEETSRRHGYVHTRTAPARDIAYMGDVNDVALPAFALALPSIAQYRSRFGLEENPLPFSLRTSFGCKFKCRFCAGVPHWLDYRKKSPDRVQAELDAFLNQLGDQARISFLEDEIFTRDPEHVAAITALLKERNIYLDGLYTHSTLLTPEIAADLCTVADRVFTGLDNADDQILRKMGKGQLLDTVLDAVEKAQAASLKVHLEWIIGTPEETLDTLVTSLSTIFNLLSTHAVESINTYVYCPHPGTDYTVNAKKYRMRVLDTFDGIQESGGYPAFDTANLTRNQIYTAYLMSQLVIAEVTAARQHSSIPRAVVPASRSELLRLFGMIGEGQVAFDFDEAPVGRVSYPEGTSRA”, the “soluble on expression in E. coli” value is on record as “not soluble”.
As for “MEKNWYVVHTYSGYENKVKANLEKRVESMGMQDKIFRVVVPEEEETDIKNGKKKVVKKKVFPGYVLVEIVMTDDSWYVVRNTPGVTGFVGSAGSGSKPTPLLPGEAETILKRMGMDERKTDIDFELKETVKVIDGPFANFTGSIEEIDYDKSKVKVFVNMFGRETPVELEFTQIDKL”, the entry is “soluble”; as for “MDYRVLLYYKYVTIDDPETFAAEHLKFCKEHHLKGRILVSTEGINGTLSGTKEDTDKYIEHMHADNRFADLTFKIDEAESHAFKKMHVRPRREIVALDLEEDINPREITGKYYSPKEFKAALEDENTVILDARNDYEYDLGHFRGAIRPDITRFRDLPEWVRNNKEQLDGKNIVTYCTGGIRCEKFSGWLVKEGFENVGQLHGGIATYGKDPETKGQYWDGKMYVFDERISVDVNQIDKTVIGKEHFDGTPCERYINCANPECNKQILVSEENEEKYLGACSYDCAKHERNRYVARHHISNEEWQRRLNNFKDVPEHTHALEHHHHHH”, “soluble”.
On to “MNKENIIADAPSDVVKTVQQQVHLNQDEYKYLKQVEQILREGTRRDDRTGTGTISIFGMQSKYCLRNGTIPLLTTKRVYWKGVLEELLWFISGSTDGKLLMEKNVKIWEKNGDRAFLDNLGFTSREEGDLGPVYGFQWRHFGAKYVDCHTDYSGQGVDQLAEVIRQIKEQPDSRRIIMSAWNPSDLGQMVLPPCHTMCQFYVDNGELSCQLYQRSGDMGLGVPFNLASYGLLTHMIAKVCGLKPGTLVHTLGDAHVYSNHVDALKIQLDREPYAFPKIRFTRDVASIDDFTSDMIALDDYKCHPKIPMDMAV”, for which the “soluble on expression in E. coli” value is “soluble”.
In the case of “MRAMRLVEIGKPLKLEDIPIPKPKGSQVLIKIEAAGVCHSDVHMRQGRFGNLRIVEDLGVKLPVTLGHEIAGRIEEVGDEVVGYSKGDLVAVNPWEGEGNCYYCRIGEEHLCDSPRWLGINYDGAYAEYVLVPHYKYLYKLRRLSAVEAAPLTCSGVTTYRAVRKASLDPSKTLVVIGAGGGLGTMAIQIAKAVSGATIIGVDVREEALEAAKRAGADYVINASSQDPVSEIRRITQGKGADAVIDLNNSEKTLSIYPYVLAKQGKYVMVGLFGADLKYHAPLITLNEVQFIGSLVGNQSDFLGIMSLAEAGKVKPMVTKTMKLEEANEAIDNLENFKAVGRQVLVP”, the “soluble on expression in E. coli” value is recorded as “soluble”.
Consider “MAHHHHHHMSCRRFHKVLQANEEENEHAREAFLASWRSEYQQFLQSKLAALVWHVEHHCRSHVTPQTATSMACGEVPRMKVATTAPNSTTTASTNSNSAMMAEDAEQHDACNVLAHKQNRRTTLPSHFFLEQTPTSMPFYPREFIVEKEAQMFRQTNSPFTVGETPHGSQHSRTEINASTATVVPLPSVHKKETADRNSEKDDDRTAILAVSPSPRQISMHSPSQIEDDGSLDASLSPAATVAVTNVLTRTPGPAVQLQKMLPTEEVSKANLRKTIARLYSESVDTRSSWSDTWSQKKQRAASLLPPPSSASHMMHLKTMHVSHGTPCENMEASRNDMLSKKQLICELRRLYGLEDER”, for which the “soluble on expression in E. coli” value is reported as “soluble”.
As for “MIGQEFRQLLIDKWGYSYDVQLRRTQGKIFLQVMWKYLEQASFPLSESQYQEHLDSITNYLNALGGTIQVQTFITQTKERPRLGKAVSIPLDLGDRSSEWIL”, the entry is “not soluble”.
